Experimental data published in patent publication US20180258140A1, “NEW DODECAPEPTIDES AND MICROCAPSULES FUNCTIONALISED WITH THEM TARGETED TO FIBROBLASTS” (Infinitec Activos, S.L., priority 2015, published 2018).
*: point of attachment. Palmitoyl = CCCCCCCCCCCCCCCC(=O)*

B1: Peptide 1: Palm-Lys-Phe-Asn-Leu-Pro-Leu-Gly-Asn-Tyr-Lys-Lys-Pro-NH2 (peptide)
peptide: Palmitoyl-KFNLPLGNYKKP-NH2
SMILES: CCCCCCCCCCCCCCCC(=O)N[C@@H](CCCCN)C(=O)N[C@@H](Cc1ccccc1)C(=O)N[C@@H](CC(N)=O)C(=O)N[C@@H](CC(C)C)C(=O)N1CCC[C@H]1C(=O)N[C@@H](CC(C)C)C(=O)NCC(=O)N[C@@H](CC(N)=O)C(=O)N[C@@H](Cc1ccc(O)cc1)C(=O)N[C@@H](CCCCN)C(=O)N[C@@H](CCCCN)C(=O)N1CCC[C@H]1C(N)=O
B2: Peptide 6: Palm-Lys-Phe-Asn-Leu-Pro-Ala-Gly-Asn-Tyr-Lys-Lys-Pro-NH2 (peptide)
peptide: Palmitoyl-KFNLPAGNYKKP-NH2
SMILES: CCCCCCCCCCCCCCCC(=O)N[C@@H](CCCCN)C(=O)N[C@@H](Cc1ccccc1)C(=O)N[C@@H](CC(N)=O)C(=O)N[C@@H](CC(C)C)C(=O)N1CCC[C@H]1C(=O)N[C@@H](C)C(=O)NCC(=O)N[C@@H](CC(N)=O)C(=O)N[C@@H](Cc1ccc(O)cc1)C(=O)N[C@@H](CCCCN)C(=O)N[C@@H](CCCCN)C(=O)N1CCC[C@H]1C(N)=O
B3: Peptide 7: Palm-Lys-Phe-Asn-Leu-Pro-Leu-Ala-Asn-Tyr-Lys-Lys-Pro-NH2 (peptide)
peptide: Palmitoyl-KFNLPLANYKKP-NH2
SMILES: CCCCCCCCCCCCCCCC(=O)N[C@@H](CCCCN)C(=O)N[C@@H](Cc1ccccc1)C(=O)N[C@@H](CC(N)=O)C(=O)N[C@@H](CC(C)C)C(=O)N1CCC[C@H]1C(=O)N[C@@H](CC(C)C)C(=O)N[C@@H](C)C(=O)N[C@@H](CC(N)=O)C(=O)N[C@@H](Cc1ccc(O)cc1)C(=O)N[C@@H](CCCCN)C(=O)N[C@@H](CCCCN)C(=O)N1CCC[C@H]1C(N)=O
B4: Peptide 4: Palm-Lys-Phe-Asn-Ala-Pro-Leu-Gly-Asn-Tyr-Lys-Lys-Pro-NH2 (peptide)
peptide: Palmitoyl-KFNAPLGNYKKP-NH2
SMILES: CCCCCCCCCCCCCCCC(=O)N[C@@H](CCCCN)C(=O)N[C@@H](Cc1ccccc1)C(=O)N[C@@H](CC(N)=O)C(=O)N[C@@H](C)C(=O)N1CCC[C@H]1C(=O)N[C@@H](CC(C)C)C(=O)NCC(=O)N[C@@H](CC(N)=O)C(=O)N[C@@H](Cc1ccc(O)cc1)C(=O)N[C@@H](CCCCN)C(=O)N[C@@H](CCCCN)C(=O)N1CCC[C@H]1C(N)=O
B5: Peptide 3: Palm-Lys-Phe-Ala-Leu-Pro-Leu-Gly-Asn-Tyr-Lys-Lys-Pro-NH2 (peptide)
peptide: Palmitoyl-KFALPLGNYKKP-NH2
SMILES: CCCCCCCCCCCCCCCC(=O)N[C@@H](CCCCN)C(=O)N[C@@H](Cc1ccccc1)C(=O)N[C@@H](C)C(=O)N[C@@H](CC(C)C)C(=O)N1CCC[C@H]1C(=O)N[C@@H](CC(C)C)C(=O)NCC(=O)N[C@@H](CC(N)=O)C(=O)N[C@@H](Cc1ccc(O)cc1)C(=O)N[C@@H](CCCCN)C(=O)N[C@@H](CCCCN)C(=O)N1CCC[C@H]1C(N)=O
B6: Peptide 5: Palm-Lys-Phe-Asn-Leu-Ala-Leu-Gly-Asn-Tyr-Lys-Lys-Pro-NH2 (peptide)
peptide: Palmitoyl-KFNLALGNYKKP-NH2
SMILES: CCCCCCCCCCCCCCCC(=O)N[C@@H](CCCCN)C(=O)N[C@@H](Cc1ccccc1)C(=O)N[C@@H](CC(N)=O)C(=O)N[C@@H](CC(C)C)C(=O)N[C@@H](C)C(=O)N[C@@H](CC(C)C)C(=O)NCC(=O)N[C@@H](CC(N)=O)C(=O)N[C@@H](Cc1ccc(O)cc1)C(=O)N[C@@H](CCCCN)C(=O)N[C@@H](CCCCN)C(=O)N1CCC[C@H]1C(N)=O

What follows are binders tested against human FGFR1 kinase (human, UniProt P11362 398-822, limits assumed) (assay: cell-based or functional assay).
human FGFR1 kinase, sequence (P11362 398-822 limits assumed): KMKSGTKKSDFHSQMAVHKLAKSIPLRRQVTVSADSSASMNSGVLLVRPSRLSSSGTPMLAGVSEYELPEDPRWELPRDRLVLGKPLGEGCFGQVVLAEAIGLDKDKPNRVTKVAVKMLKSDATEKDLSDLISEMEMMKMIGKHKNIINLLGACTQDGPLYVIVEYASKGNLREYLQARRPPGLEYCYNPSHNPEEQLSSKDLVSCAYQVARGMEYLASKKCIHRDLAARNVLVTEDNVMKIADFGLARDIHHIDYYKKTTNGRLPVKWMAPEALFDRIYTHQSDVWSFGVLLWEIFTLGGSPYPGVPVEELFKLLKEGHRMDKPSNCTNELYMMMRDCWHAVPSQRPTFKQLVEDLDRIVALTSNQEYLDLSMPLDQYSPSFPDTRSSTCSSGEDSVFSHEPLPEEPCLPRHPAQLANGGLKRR

Binder	FGFR1 Kinase % Inhibition
B1	0%
B2	92.7%
B3	0%
B4	0%
B5	85%
B6	0%

The binders below were run against FGFR3 Kinase (UniProt P22607 436-806) (assay: cell-based or functional assay).
FGFR3 Kinase, sequence (P22607 436-806 limits assumed): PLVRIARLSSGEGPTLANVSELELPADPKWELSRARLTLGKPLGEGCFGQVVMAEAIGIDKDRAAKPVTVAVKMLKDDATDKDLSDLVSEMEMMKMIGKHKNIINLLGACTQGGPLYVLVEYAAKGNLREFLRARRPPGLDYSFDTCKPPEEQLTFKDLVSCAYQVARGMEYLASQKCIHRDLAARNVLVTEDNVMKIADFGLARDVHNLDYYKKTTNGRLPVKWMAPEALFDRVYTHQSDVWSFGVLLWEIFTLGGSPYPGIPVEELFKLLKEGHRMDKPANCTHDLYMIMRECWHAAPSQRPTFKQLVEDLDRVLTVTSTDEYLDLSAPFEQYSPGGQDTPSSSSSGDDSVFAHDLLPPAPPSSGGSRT

Binder	FGFR3 Kinase % Inhibition
B1	75.8%
B2	78.5%
B3	72.9%
B4	60.8%
B5	91.9%
B6	49.6%

What follows are binders tested against FGFR4 Kinase (UniProt P22455 460-802, limits assumed) (assay: cell-based or functional assay).
FGFR4 Kinase, sequence (P22455 460-802 limits assumed): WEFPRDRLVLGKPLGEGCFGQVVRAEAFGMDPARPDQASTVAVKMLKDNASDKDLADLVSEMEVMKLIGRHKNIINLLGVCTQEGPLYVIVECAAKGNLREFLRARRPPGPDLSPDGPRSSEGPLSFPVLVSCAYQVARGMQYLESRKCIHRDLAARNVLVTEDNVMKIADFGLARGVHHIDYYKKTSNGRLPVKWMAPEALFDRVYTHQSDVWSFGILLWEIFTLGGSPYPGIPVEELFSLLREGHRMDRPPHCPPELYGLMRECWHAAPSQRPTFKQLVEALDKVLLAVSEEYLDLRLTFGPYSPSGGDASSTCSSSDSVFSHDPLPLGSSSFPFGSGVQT

Binder	FGFR4 Kinase % Inhibition
B1	38.7%
B2	69.8%
B3	67.9%
B4	0%
B5	65.9%
B6	0%
